Our source for the protein stability index values is the supplement of paper PMC9732359.

± gives the uncertainty stated by the source.

The series in a line: protein stability index of a GFP-peptide fusion (yeast GPS) (PSI 1-4); higher = more stable; sorted into four equal gates, so the index is relative within each strain. The method in brief: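 The protein stability index of a peptide was calculated by multiplying its read frequency in each gate by that gate's number and adding the products. The peptides were tiled 17-residue stretches of yeast proteins, fused downstream of GFP on a Cherry-expressing plasmid and carried in yeast as a pooled library. Mid-log cultures in leucine-free medium were sorted into four equal gates by GFP/Cherry ratio, and each gate's plasmids were PCR-amplified and Illumina-sequenced.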

In the case of NKANIQALIHGLNRHYY [RPN11], the protein stability index is, setting by setting: (doa10∆) 2.12 ± 0.082; (pdr5∆) 2.52 ± 0.073; (san1∆) 2.21 ± 0.095; (ubr1∆) 2.37 ± 0.073.
The matching figures for FTIRGFKQKLNELLKCK [MTW1]: 3.05 ± 0.059, 2.92 ± 0.073, 2.93 ± 0.064 and 3.17 ± 0.046.
The corresponding values for TDKPFSSTQDVILRKIS [CSI1] are 2.87 ± 0.13, 3.31 ± 0.13, 2.92 ± 0.071 and 3.05 ± 0.06.
Regarding EGARMVRELFEMARTKK [RPT1], the protein stability index runs as follows: (doa10∆) 1.78 ± 0.12; (pdr5∆) 1.7 ± 0.15.
As for TLDDLVTKWTNQLTESA [YJL041W/NSP1], the protein stability index stood at 2.76 ± 0.1 (doa10∆), 3 ± 0.099 (pdr5∆), 2.85 ± 0.076 (san1∆) and 3.05 ± 0.061 (ubr1∆).
Take KRLTEDERIEKELNTER [CDC53]: the protein stability index runs as follows: (pdr5∆) 2.89 ± 0.16; (san1∆) 2.33 ± 0.1; (ubr1∆) 2.31 ± 0.12.
On to RGQQVENPTDNFIIWIN [GRR1], for which the protein stability index came to 2.08 ± 0.066 (doa10∆), 2.35 ± 0.082 (pdr5∆), 2.59 ± 0.063 (san1∆) and 2.61 ± 0.061 (ubr1∆).
The corresponding values for DRKSIMPLKILLATKQH [CSN12] are 1.9 ± 0.15, 1.19 ± 0.055, 1.53 ± 0.11 and 1.42 ± 0.058.
On to KLRETLVKIDDLSANQR [SMC1], for which the protein stability index stood at 3.11 ± 0.11 (doa10∆), 3.29 ± 0.12 (pdr5∆), 3.07 ± 0.11 (san1∆) and 3.09 ± 0.077 (ubr1∆).
With CRRMILTHVDLIEKFLR [RPB10], the protein stability index came to 2.85 ± 0.21 (doa10∆), 1.46 ± 0.11 (pdr5∆) and 2.04 ± 0.099 (ubr1∆).
In the case of HPFVFEEVEDQINPTRE [SNF2], the protein stability index amounted to 3.36 ± 0.077 (doa10∆), 3.5 ± 0.13 (pdr5∆), 2.94 ± 0.17 (san1∆) and 3.13 ± 0.086 (ubr1∆).
The matching figures for LFLRGDSVIVVLKTPVE [SMD2]: 2.63 ± 0.12, 2.42 ± 0.093, 2.78 ± 0.083 and 2.38 ± 0.14.
The matching figures for LIIDDPSKGQSLSKISQ [RPP1]: 2.77 ± 0.07, 2.81 ± 0.063, 3.04 ± 0.055 and 3.02 ± 0.056.
The matching figures for IEFEYDPWNKLKHTDYW [RPB3]: 2.85 ± 0.1, 2.69 ± 0.17, 2.81 ± 0.089 and 3.06 ± 0.089.
Under “doa10∆”, DAIQAGIWNDLGSGSNV [PUP1] gave a protein stability index of 2.71 ± 0.26.
Regarding PFKFGKTSEKSENHTES [YOR098C/NUP1], the protein stability index by setting is: (doa10∆) 2.94 ± 0.16; (pdr5∆) 3.05 ± 0.14; (san1∆) 3.1 ± 0.15; (ubr1∆) 2.92 ± 0.17.
The corresponding values for KILPTDIQLKNLFPLKP [SRP68] are 2.41 ± 0.059, 2.63 ± 0.046, 2.55 ± 0.043 and 2.53 ± 0.059.
The corresponding values for QTLYTGDKVVVTIWYRA [SSN3] are 1.22 ± 0.058, 1.32 ± 0.069, 1.25 ± 0.13 and 1.47 ± 0.047.
The corresponding values for NFLETIASTEKPENKTD [SIR4] are 2.94 ± 0.1, 2.93 ± 0.089, 2.77 ± 0.11 and 3.13 ± 0.092.
With EQNSSSAKPSQIPTVSS [SIR4], the protein stability index by setting is: (doa10∆) 2.99 ± 0.062; (pdr5∆) 2.97 ± 0.051; (san1∆) 2.97 ± 0.048; (ubr1∆) 3.04 ± 0.05.
The corresponding values for NEKEQLSFINPKTGKVE [SEC65] are 2.98 ± 0.11, 2.89 ± 0.11, 2.98 ± 0.064 and 2.99 ± 0.059.
The matching figures for NLEFNYTKPYPNFEASF [SMC2]: 2.76 ± 0.09, 2.21 ± 0.1, 2.43 ± 0.15 and 2.74 ± 0.13.
The matching figures for ITYALSGYVRSRGESDD [RPS21B]: 1.74 ± 0.075, 2.81 ± 0.11, 2.44 ± 0.092 and 2.84 ± 0.058.
Take KYIALQVIVDIFSVHGN [YCG1]: the protein stability index came to 1.26 ± 0.081 (doa10∆), 1.36 ± 0.14 (pdr5∆), 1.14 ± 0.14 (san1∆) and 1.75 ± 0.16 (ubr1∆).
The corresponding values for RSCVSNSNENGTLERIK [RPN4] are 2.98 ± 0.07, 3.07 ± 0.077, 2.54 ± 0.065 and 2.95 ± 0.057.
